± gives the uncertainty stated by the source.
assay: amyloid nucleation score (Sup35N fusion, yeast selection) (log enrichment); library NNK2; higher = more nucleation; inactive = no reads after selection
Outline: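 The nucleation score equals the log enrichment of output over input reads from DiMSum, centred on the mode score of non-aggregating sequences. It was computed only for sequences with 100 or more input reads. The reads came from Illumina sequencing of plasmid inserts from psi-negative yeast expressing Sup35N fused to peptides of 20 random codons, induced with 100 μM copper sulfate for 24 hours and grown 7 days at 30°C without adenine and uracil.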

Substance	amyloid nucleation score
NISGV	-0.644 ± 0.76
LIMYGTKLSRLVMLLYYWTW	0.031 ± 0.34
SGLLSFLTHSLFEFLSNKQW	-0.557 ± 1.1
QRDCSYEYLTTKLTAELRGS	0.216 ± 0.55
WGRWSHRWAFHYRACS	-0.879 ± 0.39
VFIVYLWWTLRSWHIRVLIS	-0.52 ± 1.1
HIRFYVLSRNRSASNISIFT	3.09 ± 0.054
VVIILNDTNFLMINMVQRVM	4.327 ± 0.039
ISVGGLSHMGTVGSLMKVTQ	-0.023 ± 0.29
ISFWGFYRFRYDMCRRVSDR	-1.34 ± 0.78
HSGFADFGRMEMIRDPTGRD	1.96 ± 0.15
FYRGSQVMPR	-0.647 ± 1.1
LICSHTLIRVYVKFF	1.16 ± 0.3
YQNIVIRLLVLCYNVTDGLV	3.02 ± 0.14
IYEGIIVIFSDTGTLWRYWI	-2.09 ± 0.54
TIKLYRNMWEQLVQTEPSRT	0.045 ± 0.79
EILTNQYFCRLWVMGTFYID	-1.19 ± 1
MFLILMCNCSYVGILRPNST	6.672 ± 0.03
RVPFWFT	-1.2 ± 0.49
YVYSVYNFLRVLICAGTG	6.185 ± 0.037
ACNFFPLI	3.29 ± 0.065
MSAMPDWFPLQWNWRLGQVL	1.33 ± 0.18
GGNTVSHQK	-0.427 ± 1.1
YDEYF	inactive
MLFNLYISTSTLVDRS	1.23 ± 0.17

Substance	amyloid nucleation score
SIGPLLHMCSFVFLEVRIIF	1.83 ± 0.15
KLGWTRLTPNVAHFHLIVGL	0.583 ± 0.4
IVPSQH	0.271 ± 0.44
LVEAFYNVWRRTSAHCETVC	-0.272 ± 0.55
DVRVISNDNAWDDLRLYFDK	0.36 ± 0.3
NFRGTVLLAR	0.468 ± 0.74
IGTNSGAINSVSHGLLAGYG	1.24 ± 0.47
VIAKDLMHMLPLYM	0.37 ± 0.25
SLSTSFLYDFWVLNSADPRY	-0.258 ± 0.76
QSTHMNT	-0.364 ± 0.48
NLVYYYHLLSRIVNSYNDAL	0.811 ± 0.82
LTNEI	-0.515 ± 1
RAVHARYLL	1.86 ± 0.15
YSMSLASSRCR	inactive
QCVQRHALRVG	4.31 ± 0.12
GWVVRRINAVVFVASGSI	5.601 ± 0.048
YPVLN	-0.834 ± 0.49
HYRSFVDFITGWLVSFATEP	4.28 ± 0.054
WISNAWLYLWKHR	0.586 ± 0.81
GFSSHSSFNHTI	1.37 ± 0.32
VSMLISTTPAYIIRQFKGLW	1.09 ± 0.68
RAWHPFDGEYNIVFSHIVLK	-0.525 ± 1.1
YTEGAWVRVSDYRE	-0.565 ± 0.29
WNCLICRYVNVCKLLCFYY	6.505 ± 0.031
QTTDNFIVKHALCNVA	-0.622 ± 0.34

Substance	amyloid nucleation score
GFSIVNQDWYS	0.675 ± 0.35
PSVACGERCKPMCKVTLSPC	1.42 ± 0.33
WFNCEWEDEFIEGQRVVMTV	1.44 ± 0.47
LLVKRCSAKPNLRRLLKLMC	-0.097 ± 0.76
VGVIAMPLFLCMGQDSLLFV	4.6 ± 0.061
STQLDSKILINLRFFRMSIV	-0.081 ± 1.1
CCDVRS	0.558 ± 0.51
HRNNQMQCVFAFLW	7.199 ± 0.053
IVARHPIGFQLVWGHWLTVA	0.412 ± 0.26
SLILDNVDEGQSFSMGVCLG	0.462 ± 0.66
ITACCRSR	3.02 ± 0.062
VVCYLRIYRRILYSGIKKWP	3.71 ± 0.073
DTWTYVAWFLYIIICSRQTE	-0.623 ± 0.35
IIEPYVHGVWKFHRFYLKSA	-0.701 ± 0.55
RCLSKVLSLL	-1.72 ± 0.54
LDAGCRMYWGVRLEFRICNL	4.79 ± 0.062
FMPSVFMYSLVVFRYVVYMS	-1.07 ± 0.78
YYTFFNKRYNRWCMMNLNLT	inactive
FNDLMYVNYLLCMVH	4.04 ± 0.095
NLSFKSMYLVERWICHRKGR	1.14 ± 0.18
NSVDTTCAL	1.04 ± 0.41
GSVRTDVLSPRFGGTGHLVN	-0.116 ± 0.54
GRIVVFV	0.538 ± 0.39
FDSYTIMVI	0.682 ± 0.21
RKAMRYVVCDRRPMCYRNSW	0.752 ± 0.43

Substance	amyloid nucleation score
GREVHALPHEGMVDRSGRGT	1.29 ± 0.16
LCASHIYL	0.087 ± 0.79
APHSLVVGCTVVLF	7.589 ± 0.037
AIVSMFGVITY	-2.57 ± 0.62
FNNVILSRV	-1.5 ± 0.61
TRHSGKLLFNILMFRVMSCR	-0.36 ± 0.74
AEGVSL	-0.554 ± 1
VASKGCRYYNRLADFLHWSK	0.027 ± 0.74
SRCNISTRLLATLDVLQEKE	2.25 ± 0.08
KLAVCLCGSKHNDLGYRGDP	inactive
MINYCREIQFRM	3.63 ± 0.12
TLYQCEEDMSGYDNVNDLAY	-0.331 ± 0.27
PSDMHSNNLA	-0.774 ± 0.76
LYRTYLYTDYFTKMHV	-1.16 ± 0.76
RLYHPSQWGDLILCIFVMEA	-0.343 ± 0.62
DVYSSVRVNYT	-0.386 ± 0.56
WSYCVNERSVIKQGLTCAYV	-0.28 ± 0.76
SKRFRLTIDGIGVYRW	0.649 ± 0.22
RCFMGVA	0.276 ± 0.65
SRTIGTMQLVTMNWCFRKEA	5.37 ± 0.045
QTNYEAHFDRVINYAFVHLF	-0.392 ± 0.79
TGRWCVVGHRKSS	-0.056 ± 0.34
TIGHCTEWAINMSYVFNRGY	3.74 ± 0.053
AYRWMDSSSTRFGTGLG	0.895 ± 0.81
TFSLAVVYRFDDAFTLRVGD	6.135 ± 0.05

Substance	amyloid nucleation score
CRSCVVSYCGCEYLESLGGK	0.525 ± 0.64
IVHILYECGAFRLPRGLY	-0.538 ± 0.38
SFFLFWRFCIGAW	-0.977 ± 0.63
ILRFEAIYFEIMPHVYKVVK	-0.409 ± 0.38
SWINLQVS	-1.5 ± 0.75
GGFDYCFIMYHRNELDSGLG	-0.646 ± 0.23
IIDNYNYMF	-0.963 ± 1.1
ALWTLNDSSPDYKSPYTGGS	0.508 ± 0.6
QSYVLMC	-0.233 ± 0.48
KSLDYFSECRDSPNML	-0.757 ± 0.48
RYGPIWGYCNKLFWARCTQL	0.2 ± 0.49
IRMEFCDAMTICLLKQR	3.72 ± 0.056
IRSFVSIRMFVCGRSDLRSN	-0.22 ± 1.1
VLNGGRGVIRLYRVFAGKRF	-1.06 ± 0.47
TRTLRDGVHVGEPLAVYWCC	9.477 ± 0.028
WTHVHTRKDSLLSTGNCVPI	inactive
SVWPGRSAEASRFGFGAGAD	0.528 ± 0.49
VSVRGTHVL	-0.28 ± 0.61
LIGEVAYFICHFSKVVARLF	2.06 ± 0.075
LLVSSVSMTWHGKLSHTYFK	4.62 ± 0.059
SLKMRNRWGIDVVE	0.386 ± 0.23
RSSSCSNVMMVE	0.935 ± 0.34
VFWSGAILLLAKCIGGMSIL	-0.47 ± 0.32
NTRCGCWLVSAML	0.196 ± 0.77
GIIDV	-0.441 ± 1.1

Substance	amyloid nucleation score
ACVCHREGCVAKGIIVM	0.237 ± 1
SVFVGLRLGKAS	0.11 ± 0.28
ASITIHSFKMRTYTRAITRE	3.92 ± 0.064
FCSVCDRL	0.168 ± 0.23
SFFQESHKRIDRVYKYGMGS	-0.96 ± 0.28
YVKLCSRRDGT	-0.352 ± 0.18
NISSLSNNARVIVYFCVRYQ	inactive
WKVVSEIWIMGTSSTFVTDH	1.11 ± 0.12
LQTFMNVGVFSGDKEYPCVF	0.662 ± 0.66
NYRMCFTLHSCYLIRSDNLS	inactive
FQCSYVWVKLWHILN	-0.887 ± 1.1
LLLSFTCLRHTGWFFIRRCC	-0.631 ± 0.41
LGNTRSIWGE	0.578 ± 0.27
GLIGSERNSRVWRNYQMSCS	2.99 ± 0.11
NCGLCGILHHL	8.14 ± 0.072
MCMLDRRYQTVMSKVWPNLT	0.224 ± 0.33
LLPSHISASNHIWWLKTS	0.307 ± 0.31
CSNYQRYTILVYPTRSYGCL	0.558 ± 0.6
IDFLM	-0.744 ± 0.39
LSMTKVLFCTFEITSLSLYQ	-0.245 ± 0.62
CYFNARSDSVNVYVV	-0.029 ± 1.1
NWGWFVSLFYGVAAGDHSRT	0.955 ± 0.37
VSDNFTYVLVYESGTGFTVS	inactive
NVLRFSSTSLYGLAFLAEGS	-0.577 ± 0.3
SCYLVVFPKIC	inactive

Substance	amyloid nucleation score
VTWGIIYRLSDG	3.58 ± 0.09
SLGIVNSHIFAMWTFSSMGA	3.74 ± 0.065
PDFKNLSYWLSVDTMPSRWV	inactive
LEMCVLR	0.23 ± 0.45
TNCSYMMYAAKVSQKYPPFP	-0.567 ± 1.1
YSPLLTLWKIGRIWIAFMIA	0.148 ± 1
FDMVSVVVYMRAVTTKCGPS	1.73 ± 0.24
FSVTMF	-0.197 ± 0.33
PWNMACFS	inactive
LIAGYDAWWSSKMSRHKVSV	-0.232 ± 0.27
YPEADALLRFGVMDIHN	0.085 ± 0.36
WAVELLLA	1.03 ± 0.53
KPLLVN	0.271 ± 0.46
RDWRANGSCHESSSGLDM	1.6 ± 0.34
ISLSHWGQTIPLRSFLLNRL	0.432 ± 0.53
TTPGTDSLMAEII	1.01 ± 0.49
VVKLMAMFGRTNVLTLERHL	0.655 ± 0.31
WVLVYIICFTQDDS	-1.4 ± 1.1
SKLRYNFR	-0.573 ± 0.32
AYKNYIPVVSVH	-1.37 ± 1.1
YNQSMYFRVLGFYTYPSDRG	2.32 ± 0.07
FRVSSIWDRLVATLGNMCRS	inactive
PFTSYML	5.63 ± 0.065
DLGMECTQVGRLDVVWELLI	0.632 ± 0.31
PRRECVVRSAVPWYRRSRE	1.71 ± 0.35
